# Values joined by “and” are separate entries in the source; they are usually repeats but may differ in a detail not shown here. Equal entries are not always repeated.
# Assays:
# [1] = biological target: human ErbB2, full length, on cells (B300.19/hErbB2 clone #44; MCF7; BT474; SKBR3) (human)
# [2] = biological target: human ErbB2, full length, on cells (B300.19/hErbB2 clone #44; MCF7; BT474; SKBR3) (human); remark: listed apart in the source
# [3] = biological target: human ErbB2, full length, on cells (B300.19/hErbB2 clone #44; MCF7; BT474; SKBR3) (human); remark: listed apart in the source
# [4] = biological target: human ErbB2, full length, on cells (B300.19/hErbB2 clone #44; MCF7; BT474; SKBR3) (human); remark: listed apart in the source
# [5] = biological target: human ErbB2 ECD-myc/His fusion protein (human); assay: SPR, high resolution Biacore T100; mAb captured on goat anti-human IgG, hHer-2(ECD)cMyc injected; 1:1 fit
# [6] = biological target: human ErbB2, full length, on cells (B300.19/hErbB2 clone #44; MCF7; BT474; SKBR3) (human); remark: listed apart in the source
# [7] = biological target: human ErbB2 ECD-myc/His fusion protein (human); assay: limited antigen ELISA, 31 ng/ml antigen coated, supernatant 1:25, OD 450 nm
# [8] = biological target: human ErbB2, full length, on cells (B300.19/hErbB2 clone #44; MCF7; BT474; SKBR3) (human); remark: listed apart in the source
# [9] = biological target: human ErbB2 ECD-myc/His fusion protein (human); assay: SPR, medium resolution Biacore 2000; mAb captured on goat anti-human IgG, ErbB2(ECD)-cMyc/His injected; 1:1 fit
"N1 % Inhibition @40 µg/ml, BT474 cell proliferation [1]","N1 EC50 (ng/ml), inhibition of BT474 cell proliferation [1]","N2 EC50 (ng/ml), inhibition of BT474 cell proliferation [1]","% inhibition @36 µg/ml, SKBR3 cell proliferation [2]","EC50 (ng/ml), inhibition of SKBR3 cell proliferation [2]","% Inhibition @10 µg/ml (n1), ErbB2 phosphorylation in BT474 cells at 48 hours [3]","% Inhibition @10 µg/ml, Heregulin-induced MCF7 cell proliferation [4]","EC50 (ng/ml), inhibition of Heregulin-induced MCF7 cell proliferation [4]",Kd [5],"EC50 (ng/ml) n1, inhibition of Heregulin-induced ErbB2 phosphorylation in MCF7 cells [6]","EC50 (ng/ml) n2, inhibition of Heregulin-induced ErbB2 phosphorylation in MCF7 cells [6]",LA at 31 ng/ml [7],Kd [9],koff [9],kon [9],Molecule,further results
-2%,> 40000 ng/mL,> 40000 ng/mL,2%,> 36000 ng/mL,,,,,,,,,,,hIgG1 control antibody,
-9%,> 40000 ng/mL,4750 ng/mL,,> 36000 ng/mL,10%,90%,404 ng/mL,3.2 nM,43.6 ng/mL,14.6 ng/mL,,,,,chimeric anti-hErbB2 antibody 2C4,
,,,,,5%,,> 10000 ng/mL,,> 10000 ng/mL,> 10000 ng/mL,,,,,Herceptin® (antibody),
40%,85.3 ng/mL,12.8 ng/mL,49%,25.2 ng/mL,21%,100%,770 ng/mL,,15.5 ng/mL,17.4 ng/mL,2.84 OD and 1.77 OD,3.6 nM,0.000344 s⁻¹,95000 M⁻¹ s⁻¹,"monoclonal antibody 1.20 (antibody, V domains shown) VH: QLQLQESGPGLVKPSETLSLTCTVSGGSISSSNYYWGWIRQPPGKGLEWIGTIYYTGSTYYNPSLKSRVTISVDTSKNQFSLKLSSVTAADTAVYYCARHHWVFDYWGQGTLVTVSS VL: DIQMTQSPSSVSASVGDRVTITCRASQGISSWLAWYQQKPGKAPKLLIYAASSLQSGVPSRFSGSGSGTDFTLTISSLQPEDFATYYCQRTNSFPRTFGQGTKVEIK",24 hr pTyr inhibition % (line 1*19) [8]: 97%; 24 hr pTyr inhibition % (line 1*20) [8]: 96%
29%,156 ng/mL,42.3 ng/mL,41%,68.9 ng/mL,37%,89%,479 ng/mL,13.4 nM,46.9 ng/mL,26.3 ng/mL,2.57 OD,2 nM,0.000236 s⁻¹,115000 M⁻¹ s⁻¹,"monoclonal antibody 1.39 (antibody, V domains shown) VH: QLQLQESGPGLVKPSETLSLTCTVSGGSISSSTYYWGWIRQPPGKGLEWIGTIYYSGSTYYNPSLKSRVTISVDTSKNQFSLKLNSVTAADTAVYYCARHHWVFDYWGQGTLVTVSS VL: EIVLTQSPDFLSVTPKEKVTITCRASQIIGSSLHWYQQKPDQSPKLLIKYASQSFSGVPSRFSGSGSGTDFTLTLNSLEAEDAATYYCHQSTILPWTFGQGTKVEIK",24 hr pTyr inhibition % (line 1*39) [8]: 99%; koff [5]: 0.000214 s⁻¹; kon [5]: 16000 M⁻¹ s⁻¹
38%,136 ng/mL,63 ng/mL,52%,35.7 ng/mL,37%,96%,640 ng/mL,,33.7 ng/mL,22.9 ng/mL,3.99 OD,2.5 nM,0.000256 s⁻¹,102000 M⁻¹ s⁻¹,"monoclonal antibody 1.14.1 (antibody, V domains shown) VH: QLQLQESGPGLVKPSETLSLTCTVSGDSISSFIYYWGWIRQPPGKGLEWIGTIYYSGSTYYNPSLKSRVTISVDTSKNQFSLKLRSVTAADTAVYYCARHHWVFDYWGQGTQVTVSS VL: DIVLTQFPDFQSVTPKEKVTITCRASQVIGSSLHWYQQKPDQSPKLLIKYASQSFSGVPSRFSGSGSGTDFTLTINSLEVEDAATYYCHQSTILPWTFGQGTKVEVK",24 hr pTyr inhibition % (line 1*14) [8]: 100%
35%,169 ng/mL,91.1 ng/mL,54%,61.3 ng/mL,37%,95%,2040 ng/mL,,39.9 ng/mL,33.7 ng/mL,3.54 OD,2.9 nM,0.000301 s⁻¹,104000 M⁻¹ s⁻¹,"monoclonal antibody 1.100.1 (antibody, V domains shown) VH: QLQLQESGPGLVKPSETLSLTCTVSGGFISSSSYYWGWIRQPPGKGLEWIGTIYYSGTTYYNSSLKSRVTISVDTSQNQFSLKLSSVTAADTAVYYCARHHWVFDYWGQGTLVTVSS VL: EVVLTQSPDFQSVTPKEKITITCRASQIIGTSLHWYQKKPDQSPKLLIKYASQSFSGVPSRFSGSGSGTEFTLTINSLEAEDTATYYCHQSTNLPWTFGQGTKVEIK",24 hr pTyr inhibition % (line 1*100) [8]: 95%
,,,,,,53%,10000 ng/mL,,> 10000 ng/mL,> 10000 ng/mL,3.2 OD and 3.57 OD,,,,"monoclonal antibody 1.43 (antibody, V domains shown) VH: QVQLVESGGGLVKPGGSLRLSCAASGFTFSDYYMNWIRQAPGKGLEWVSYISSSGSIIYYADSVKGRFTISRDNAKNSLYLQMNSLRAEDTAVYYCAREGRIAARGMDVWGQGTTVTVSS VL: DIQMTQSPSSLSASVGDRVSITCRPSQSFSRYINWYQQKPGKAPKLLIHAASSLVGGVPSRFSGSGSGTDFTLTISSLQPEDFATYYCQQTYSNPPITFGQGTRLEMK",24 hr pTyr inhibition % (line 1*41) [8]: 86%; 24 hr pTyr inhibition % (line 1*43) [8]: 82%
34%,38.1 ng/mL,28.2 ng/mL,46%,26.3 ng/mL,24%,94%,415 ng/mL,,4.2 ng/mL,10.8 ng/mL,3.03 OD,3 nM,0.000302 s⁻¹,100000 M⁻¹ s⁻¹,"monoclonal antibody 1.18.1 (antibody, V domains shown) VH: QVQLVESGGGVVQPGRSLRLSCAASGFTFSSYGMHWVRQAPGKGLEWVAVIWYDRSNKYYADSVKGRFTISRDNSKNTLYLQMDSLRAEDTAVYYCAGGRSRGAFDYWGQGTLVTVSS VL: DIQMTQSPSSLSASVGDRVTITCRASQGIRNYLAWFQQKPGKAPKSLIYAASSLQSGVPSTFSGSGSGTHFTLTISSLQPEDFASYFCQQYEIYPLTFGGGTKVEIK",24 hr pTyr inhibition % (line 1*18) [8]: 96%
35%,131 ng/mL,66.3 ng/mL,43%,41.7 ng/mL,37%,98%,2830 ng/mL,11.6 nM,28.8 ng/mL,34 ng/mL,,2.6 nM,0.000273 s⁻¹,103000 M⁻¹ s⁻¹,"monoclonal antibody 1.96 (antibody, V domains shown) VH: EVQLVESGGGLVQPGGSLRLSCAASGFTFSSYWMSWVRQAPGKGLEWVANIKQDGSEKYYVDSVKGRFTISRDNAKNSLYLQMNSLRAEDTAVYYCARWGVFGSGSYYIPFDYWGQGTLVTVSS VL: DIQMTQSPSSLSASVGDRVTITCRASHSITRYINWYQQKPGKAPNLLIYAASSLQSGVPSRFSGSGSGTDFTLTISSPQPEDFATYYCQQSYSSPPITFGQGTRLEIK",24 hr pTyr inhibition % (line 1*96) [8]: 99%; 24 hr pTyr inhibition % (line 1*99) [8]: 99%; 24 hr pTyr inhibition % (line 1*104) [8]: 73%; 24 hr pTyr inhibition % (line 1*107) [8]: 82%; 24 hr pTyr inhibition % (line 1*128) [8]: 98%; koff [5]: 0.000194 s⁻¹; kon [5]: 16800 M⁻¹ s⁻¹
